Measured values: patent publication US20150065440A1, “SULFATED OLIGOSACCHARIDE DERIVATIVES” (Progen Pharmaceuticals Limited, priority 2007, published 2015)

Substrate: CO[C@H]1O[C@H](COS(=O)(=O)O)[C@@H](O[C@@H]2O[C@@H](C(=O)O)[C@@H](O[C@H]3O[C@H](COS(=O)(=O)O)[C@@H](O[C@@H]4O[C@H](C(=O)O)[C@@H](O[C@H]5O[C@H](COS(=O)(=O)O)[C@@H](O)[C@H](O)[C@H]5NS(=O)(=O)O)[C@H](O)[C@H]4O)[C@H](OS(=O)(=O)O)[C@H]3NS(=O)(=O)O)[C@H](O)[C@H]2OS(=O)(=O)O)[C@H](O)[C@H]1NS(=O)(=O)O
Assay: purified protein, by the assay type
Settings: other: substrate of heparanase; pH 5.0

B1: recombinant human heparanase (Homo sapiens) (protein)
chain 1: KKFKNSTYSRSSVDVLYTFANCSGLDLIFGLNALLRTADLQWNSSNAQLLLDYCSSKGYNISWELGNEPNSFLKKADIFINGSQLGEDFIQLHKLLRKSTFKNAKLYGPDVGQPRRKTAKMLKSFLKAGGEVIDSVTWHHYYLNGRTATKEDFLNPDVLDIFISSVQKVFQVVESTRPGKKVWLGETSSAYGGGAPLLSDTFAAGFMWLDKLGLSARMGIEVVMRQVFFGAGNYHLVDENFDPLPDYWLSLLFKKLVGTKVLMASVQGSKRRKLRVYLHCTNTDNPRYKEGDLTLYAINLHNVTKYLRLPYPFSNKQVDKYLLRPLGPHGLLSKSVQLNGLTLKMVDDQTLPPLMEKPLRPGSSLGLPAFSYSFFVIRNAKVAACI
chain 2: QDVVDLDFFTQEPLHLVSPSFLSVTIDANLATDPRFLILLGSPKLRTLARGLSPAYLRFGGTKTDFLIFDPKKE
Km: 33 ± 6 µM
